Experimental findings from US20220281980A1 (Bristol-Myers Squibb, published 2022) are described below.

B1: MICA.2 (antibody, human IgG1, kappa, V domains shown)
VH: EVQLVESGGGLVQPGGSLRLSCAASGFTFSTYSMNWVRQAPGKGLEWVSYISYRSRTIYYADSVKGRFTISRDNARNSLYLQMNSLRDEDTAVYYCARWGYGSGGFDYWGQGTLVTVSS
VL: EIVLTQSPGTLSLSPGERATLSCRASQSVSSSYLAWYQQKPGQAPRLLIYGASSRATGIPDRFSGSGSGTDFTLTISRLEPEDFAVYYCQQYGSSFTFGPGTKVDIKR
notes: 3F5 variable regions on human IgG1f and human kappa constant regions, made in CHO-S cells; also called 3F5; recombinant antibody of 3F5
B2: 24G11 (antibody, V domains shown)
VH: EVQLVQSGAEVKKPGESLKISCKGSGYSFTNYWIGWVRQMPGKGLEWLGIIHPGDSYTRYSPSFQGQVTISADKSISTAYLQWSSLKASDTAIYYCAREGIAATPFDYWGQGTLVTVSS
VL: EIVLTQSPATLSLSPGERATLSCRASQSVSSYLAWFQQKPGQAPRLLIYDASNRATGIPARFSGSGSGTDFTLTISSLEPEDFAVYYCQQRSNWPPTFGQGTKVEIK
notes: also called MICA.54; 24G11 (MICA.54)
B3: 19G6 (antibody, V domains shown)
VH: QVQLVESGGGVVQPGRSLRLSCAASGFTFSNYAMHWVRQAPGEGLEWVALIWYDGSNKFYGDSVKGRFTISRDNSKNTLYLQMNSLSAEDTAVYYCAREGSGHYWGQGTLVTVSS
VL: AIQLTQSPSSLSASVGDRVTITCRASQGISSALAWYQQKPGKVPKSLIYDASSLESGVPSRFSGSGSGTDFTLTISSLQPEDFATYYCQQFNSYPITFGQGTRLEIK
notes: Hybridoma antibody from human IgG transgenic mice, parent of MICA.36; also called 19G6 mAb; hybridoma 19G6
B4: 71C2 (antibody, V domains shown)
VH: EVQLVESGGGLVQPGRSLRLSCAASGFTFNNYAMHWVRQAPGKGLEWVSGITWNSDSIGYADSVKGRFTISRDNAKNSLYLQMNSLRAEDTALYYCAKDSVLLWFGGMDVWGQGTTVTVSS
VL: not shown
notes: Hybridoma antibody
B5: MICA.36 (antibody, V domains shown)
VH: B3 VH
VL: B3 VL
notes: it says that the name implies no specific constant region; Radioiodinated in the Scatchard assay; also called MICA.36 antibody

The target in the first test is T1, human MICB expressed on transduced cells (human, UniProt Q29980 23-382).
T1 construct: also called MICB*005
T1 chain: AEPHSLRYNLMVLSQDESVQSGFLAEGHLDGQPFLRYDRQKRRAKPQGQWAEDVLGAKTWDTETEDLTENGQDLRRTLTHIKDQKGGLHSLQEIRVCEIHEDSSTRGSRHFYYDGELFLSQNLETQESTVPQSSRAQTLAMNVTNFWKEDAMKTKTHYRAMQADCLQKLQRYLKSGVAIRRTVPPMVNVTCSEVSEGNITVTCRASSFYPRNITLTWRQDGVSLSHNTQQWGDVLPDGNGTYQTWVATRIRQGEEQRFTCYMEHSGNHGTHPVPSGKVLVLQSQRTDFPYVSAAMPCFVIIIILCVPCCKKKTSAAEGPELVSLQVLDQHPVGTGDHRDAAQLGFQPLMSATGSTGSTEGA
As to the kind of experiment: flow cytometry, transfected CHO cells. For orientation: A flow cytometer gives signals particle by particle.
By EC50 is commonly meant the concentration needed to bring the measured effect to its halfway point. With B1, the EC50 was found to be 6 nM.

Turning to B2, the midpoint of the response, the EC50, lay at 262 nM.

For the molecule B3, the EC50 stood at 1.83 nM.

In the case of B4, a half-maximal effect (EC50) was put at 9.81 nM.

A further test deals with T2, human MICA*008 expressed on CHO cells (human, UniProt Q29983 24-331).
T2 construct: also called MICA allele 008
T2 chain: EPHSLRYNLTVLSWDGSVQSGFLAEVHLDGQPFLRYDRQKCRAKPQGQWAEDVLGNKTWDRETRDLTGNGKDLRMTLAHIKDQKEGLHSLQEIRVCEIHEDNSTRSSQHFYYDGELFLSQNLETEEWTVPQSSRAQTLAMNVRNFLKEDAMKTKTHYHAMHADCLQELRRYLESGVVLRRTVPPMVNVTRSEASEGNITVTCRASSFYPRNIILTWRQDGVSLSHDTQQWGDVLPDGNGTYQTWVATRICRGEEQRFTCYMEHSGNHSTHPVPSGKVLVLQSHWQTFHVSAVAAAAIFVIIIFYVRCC
Kind of test: flow cytometry, transfected CHO cells.
For B1, the EC50 turned out to be 2.14 nM.

In the case of B2, the EC50 is 248 nM.

In turn, B3 registered an EC50 of 9.23 nM.

B4: a half-maximal response (EC50) required 10 nM.

The target in the next test is T3, cynomolgus monkey MICA/B clone #4 expressed on CHO cells (cynomolgus monkey).
T3 construct: whole, on cells; also called cyno#4; CHO-cyno MICA clone #4
As to the kind of experiment: flow cytometry, transfected CHO cells.
For B1, the EC50 was determined as 1.97 nM.

In turn, B2 gave an EC50 of 394 nM.

In turn, B3 returned an EC50 of 1.08 nM.

In turn, B4 showed an EC50 of 23.4 nM.

The next test addresses T4, human MICA*004 expressed on CHO cells (human, UniProt Q29983 24-383).
T4 construct: also called MICA allele 004
T4 chain: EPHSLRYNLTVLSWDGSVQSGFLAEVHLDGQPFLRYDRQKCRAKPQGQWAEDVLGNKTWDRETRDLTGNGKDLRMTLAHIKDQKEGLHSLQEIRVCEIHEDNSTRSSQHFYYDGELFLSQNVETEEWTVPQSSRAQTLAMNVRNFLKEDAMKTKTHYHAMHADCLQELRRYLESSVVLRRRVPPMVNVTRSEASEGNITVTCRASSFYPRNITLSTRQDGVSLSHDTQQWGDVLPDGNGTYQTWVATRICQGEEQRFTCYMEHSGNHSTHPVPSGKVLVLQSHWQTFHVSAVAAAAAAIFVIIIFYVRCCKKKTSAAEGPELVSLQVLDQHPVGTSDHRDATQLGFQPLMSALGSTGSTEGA
Kind of test: flow cytometry, transfected CHO cells.
With B1, the EC50 was found to be 2.94 nM.

B2 yielded an EC50 of 518 nM.

As to B3, it took 11.4 nM to reach a half-maximal effect (EC50).

In the case of B4, the midpoint of the response, the EC50, lay at 26.2 nM.

The next test has as its target T5, human MICA*010 expressed on CHO cells (human, UniProt Q29983 24-383).
T5 construct: also called MICA allele 010
T5 chain: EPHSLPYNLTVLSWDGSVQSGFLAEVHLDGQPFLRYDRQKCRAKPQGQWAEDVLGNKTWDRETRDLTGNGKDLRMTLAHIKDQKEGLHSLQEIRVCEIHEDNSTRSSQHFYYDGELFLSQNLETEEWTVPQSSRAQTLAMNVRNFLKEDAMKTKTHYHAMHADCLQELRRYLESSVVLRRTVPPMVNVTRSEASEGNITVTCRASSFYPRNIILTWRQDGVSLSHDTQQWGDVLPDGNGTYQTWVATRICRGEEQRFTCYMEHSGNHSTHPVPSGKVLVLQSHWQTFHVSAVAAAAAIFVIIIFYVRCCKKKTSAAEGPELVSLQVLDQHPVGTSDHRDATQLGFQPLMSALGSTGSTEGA
As to the kind of experiment: flow cytometry, transfected CHO cells.
B1: the midpoint of the response, the EC50, lay at 6.91 nM.

As to B2, a half-maximal effect (EC50) was put at 722 nM.

B3 registered an EC50 of 18.5 nM.

Take B4: the EC50 amounted to 80 nM.

Another test addresses T6, human MICA*002 expressed on CHO cells (human, UniProt Q29983 24-382).
T6 construct: also called MICA allele 002
T6 chain: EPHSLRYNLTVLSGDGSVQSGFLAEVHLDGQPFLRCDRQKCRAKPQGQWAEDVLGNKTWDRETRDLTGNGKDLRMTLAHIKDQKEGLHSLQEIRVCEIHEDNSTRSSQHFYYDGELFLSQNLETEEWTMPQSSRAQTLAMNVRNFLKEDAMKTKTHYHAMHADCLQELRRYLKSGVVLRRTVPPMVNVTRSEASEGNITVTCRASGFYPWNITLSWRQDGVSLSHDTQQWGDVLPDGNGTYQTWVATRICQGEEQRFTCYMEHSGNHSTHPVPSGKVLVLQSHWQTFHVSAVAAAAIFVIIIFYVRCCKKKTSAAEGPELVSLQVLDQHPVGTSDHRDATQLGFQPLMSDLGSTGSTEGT
Kind of test: flow cytometry, transfected CHO cells.
In the case of B1, the EC50 turned out to be 5.37 nM.

Regarding B2, the EC50 was 1060 nM.

Molecule B3 had an EC50 of 152 nM.

With B4, the EC50 came to 264 nM.

Another test deals with T7, recombinant soluble human MICA*008 antigen (human, UniProt Q29983 24-307).
T7 construct: also called huIMICA-his allele *008; recombinant soluble MICA (allele 8)
T7 chain: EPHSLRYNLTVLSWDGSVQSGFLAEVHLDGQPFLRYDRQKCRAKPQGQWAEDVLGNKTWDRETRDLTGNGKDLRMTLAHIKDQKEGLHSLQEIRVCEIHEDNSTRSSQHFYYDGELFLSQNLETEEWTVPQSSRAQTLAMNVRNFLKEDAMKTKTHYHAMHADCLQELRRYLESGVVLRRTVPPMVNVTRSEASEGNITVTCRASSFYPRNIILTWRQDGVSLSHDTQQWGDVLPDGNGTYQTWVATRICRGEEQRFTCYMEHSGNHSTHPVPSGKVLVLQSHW
As to the kind of experiment: BLI (Octet) sandwich binning on soluble MICA allele 8, row antibody captured; competitor (second antibody): 24G11. As for the experimental part:
The binning experiments were performed on an Octet HTX instrument at 25° C. in HEPES buffered saline (10 mM HEPES pH 7.4, 150 mM NaCl, 0.05% v/v surfactant P20, and 1 mg/mL BSA). Anti-MICA/B antibodies and NKG2D-mFc were captured on anti-Fc tips and remaining capture sites were blocked with an excess of negative control IgG. Recombinant soluble MICA (allele 8) was bound and subsequent binding (“sandwiching”) of anti-MICA/B antibodies was tested.
For orientation: Biolayer interferometry detects binding as a change in optical thickness at a sensor tip.
As to B1, the “simultaneous binding (0 = no, 1 = yes)” value turned out to be 1.

B2: the “simultaneous binding (0 = no, 1 = yes)” value was 0.

With B5, the “simultaneous binding (0 = no, 1 = yes)” value was found to be 0.
